Where “and” joins values, the source holds several entries; their conditions need not be identical. Identical values can stand only once.
Experiments:
[1] = system: HO-1 mRNA; experiment: Renal cortical HO-1 mRNA (RT-PCR) after IV myoglobin, SnPP or both; type: in vivo, mice
From the text: (§1) The Glycerol Model of AKI. This is a widely used model of rhabdomyolysis-induced AKI that has been employed worldwide for 50 years. The model was used to test whether prophylactic interventions confer protection against AKI. Basically, the protocol is as follows: Male CD-1 mice (35-45 grams), obtained from Charles River Laboratories, Wilmington, Mass. were studied. Mice were maintained under standard vivarium conditions and generally housed for 1-3 weeks prior to study. The mice were placed in a cylindrical restraining cage, and then were given a tail vein injection of the test substances (see below) or test substance vehicle. The mice were then returned to their cages. Eighteen hours (hrs) later, the mice were briefly anesthetized by isoflurane inhalation, and given an intramuscular injection of hypertonic (50%) glycerol in a dose of 9 ml/Kg body weight. The dose is divided in two, with half injected into the muscle of each of the hind limbs. The mice were then returned to their cages. Eighteen hrs later, the mice were deeply anesthetized with pentobarbital (50-100 mg/Kg), the abdominal cavity was opened through a midline abdominal incision, a blood sample was obtained from the abdominal vena cava and the kidneys were resected. A kidney cross section was obtained and fixed in formalin for subsequent histologic analysis. The terminal blood samples were analyzed for BUN and creatinine, using commercially available assay kits. The remaining kidney tissue was subjected to cortical dissection, and the cortical tissues were then extracted for protein and RNA. The protein samples were saved for analysis of HO-1 levels, and the RNA samples were subjected to RT-PCR to quantify HO-1 mRNA as well as levels of other stress gene mRNAs (e.g. NGAL, haptoglobin, hemopexin, hepicidin).
(§2) Myoglobin+SnPP: To 5 mg of dry myoglobin was added 0.9 ml of PBS+0.1 ml of a stock SnPP solution (50 umole/ml). The resulting final concentrations were 5 mg/ml myoglobin+5 umoles/ml of SnPP. The tail vein was injected with 200 ul of this solution, which equals 1 mg myoglobin+1 umole SnPP. […]
(§3) Four hr post myoglobin vs myoglobin+SnPP vs SnPP alone experiments. To confirm that the myoglobin+SnPP has a synergistic effect in inducing HO-1 mRNA and HO-1 protein levels, each of the above combinations have been administered alone via tail vein injection. Four hrs later, the mice were sacrificed as noted above and the kidneys were harvested for assessment of HO-1 mRNA and protein levels. For additional information regarding methods, see Zager et al., Am J Physiol Renal Physiol. 2014 Jul. 30. Pii.

[2] = system: HO-1; experiment: Renal cortical HO-1 protein (ELISA) after IV myoglobin, SnPP or both; type: in vivo, mice; conditions: 1 mg Myoglobin, 1 μmole SnPP
From the text: as §1, §2
as §3, with “Four hrs later, the mice were sacrificed as noted above and the kidneys were harvested for assessment of HO-1 mRNA and protein levels.” left out

[3] = system: Haptoglobin; experiment: Haptoglobin protein expression after SQ myoglobin with or without PEG; type: in vivo, mice; conditions: 4 hour time point after SQ injection
Procedure: Myoglobin+PEG: To a stock solution of 20 mg/ml Mgb in PBS was added 100 mg/ml of PEG-6000; […]. This was administered as a subcutaneous injection in the dorsal neck (250 ul total injection). For combined Mgb/PEG+SnPP, SnPP was added to the above in a concentration of 3 mg/ml.

[4] = parameters: species or system mice; conditions: mouse, in vivo, iv
[5] = system: HK-2 cells; experiment: HK-2 cell injury by MTT assay; type: cell-based; conditions: 10 mg/mL, 18 hr incubation, compared to control incubated cells
Procedure: HK-2 cells (a proximal tubule cell line derived from normal human kidney) were incubated in keratinocyte serum free medium either under normal (control) conditions or in the presence of 10 mg/mL horse skeletal muscle myoglobin or nitrited myoglobin (produced by equimolar Na nitrite addition to 10 mg/ml myoglobin). After 18 hr incubations, the severity of cell injury (% cell death) was assessed by MTT assay. Myoglobin induced 40% cell death (40% decrease in MTT cell uptake), compared to control incubated cells. Nitrite binding to myoglobin reduced cell death by 75%. Thus, nitrite binding is able to reduce myoglobin's cytotoxic effects.

B1: myoglobin (protein, listed as Homo Sapiens)
chain: MGLSDGEWQLVLNVWGKVEADIPGHGQEVLIRLFKGHPETLEKFDKFKHLKSEDEMKASEDLKKHGATVLTALGGILKKKGHHEAEIKPLAQSHATKHKIPVKYLEFISECIIQVLQSKHPGDFGADAQGAMNKALELFRKDMASNYKELGFQG
notes: Lyophilized horse skeletal muscle myoglobin (Sigma Chemicals) used as the test agent
- HO-1 mRNA induction (HO-1/GAPDH mRNA), Average ([1]; 4 hrs post IV injection, average): 3.93 HO-1/GAPDH mRNA
- HO-1 mRNA induction (HO-1/GAPDH mRNA), individual mice ([1]; 4 hrs post IV injection, single animals): 7.78 HO-1/GAPDH mRNA and 2.93 HO-1/GAPDH mRNA and 2.58 HO-1/GAPDH mRNA and 2.41 HO-1/GAPDH mRNA
- HO-1 mRNA induction overnight post injection, Average ([1]; Ovnt (roughly 18 hrs) IV, 1 mg Myoglobin, 1 μmole SnPP, average): 0.58 HO-1/GAPDH mRNA
- HO-1 mRNA induction overnight post injection, individual subjects ([1]; Ovnt (roughly 18 hrs) IV, 1 mg Myoglobin, 1 μmole SnPP, single animals): 0.71 HO-1/GAPDH mRNA and 0.53 HO-1/GAPDH mRNA and 0.51 HO-1/GAPDH mRNA
- HO-1 Protein Expression (by ELISA), Average ([2]; Cortex, 4 hr IV, average): 45.4 ng HO-1/mg protein
- HO-1 Protein Expression (by ELISA), individual mice ([2]; Cortex, 4 hr IV, single animals): 36.0 ng HO-1/mg protein and 40.7 ng HO-1/mg protein and 40.2 ng HO-1/mg protein and 64.7 ng HO-1/mg protein
- HO-1 protein induction overnight post injection, Average ([2]; Ovnt (roughly 18 hrs) IV, average, in ng/mg protein): 36.7
- HO-1 protein induction overnight post injection, individual subjects ([2]; Ovnt (roughly 18 hrs) IV, single animals, in ng/mg protein): 50.6 and 34.9 and 24.6
- Haptoglobin Protein Expression [3]: 32.7 ± 6.3 ng/mg protein
- Plasma LDH, Average [4]: 4.47 Absorbance U LDH/ml
- cell death (decrease in MTT cell uptake) [5]: 40%

Reference: US9844563B2, “Compositions, kits, and methods to induce acquired cytoresistance using stress protein inducers” (FRED HUTCHINSON CANCER RESEARCH CENTER, priority 2014, dated 2017)
